Biological target: Chaetomium thermophilum Pmt4 (protein O-mannosyltransferase 4), wild-type full-length (Chaetomium thermophilum)
Experiment: native MS; ctPmt4 purified in DDM, exchanged into 200 mM ammonium acetate pH 8.0 with 2x CMC detergent; Q Exactive UHMR, negative polarity; monomer and dimer peaks seen

Chaetomium thermophilum Pmt4 (protein O-mannosyltransferase 4), wild-type full-length (enzyme)
stoichiometry N: 2

— paper PMC12705809
